Measurements as given in publication doi:10.1101/2023.01.25.525455 (bioRxiv, 2023).
“And” between values parts separate entries of the source, which are not always exact repeats. Equal entries are not always repeated.

Columns and labels:
purified VPS29 = purified VPS29 (human, UniProt Q9UBQ0 1-182); test: ITC
recombinant DENND10 = recombinant DENND10 (human, UniProt Q8TCE6 1-357); test: ITC
Sequence of recombinant DENND10 (Q8TCE6 whole entry): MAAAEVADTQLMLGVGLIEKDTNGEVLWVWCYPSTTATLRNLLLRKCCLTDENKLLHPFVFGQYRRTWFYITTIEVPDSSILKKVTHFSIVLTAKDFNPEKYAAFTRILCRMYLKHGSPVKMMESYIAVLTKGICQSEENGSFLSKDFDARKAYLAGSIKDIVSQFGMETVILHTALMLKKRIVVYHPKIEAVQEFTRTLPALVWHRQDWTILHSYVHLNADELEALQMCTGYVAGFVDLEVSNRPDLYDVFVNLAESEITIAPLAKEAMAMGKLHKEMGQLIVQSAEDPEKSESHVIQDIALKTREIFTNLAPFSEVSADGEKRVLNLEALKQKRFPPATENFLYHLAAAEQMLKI

Binder | Kd (purified VPS29) | Kd (recombinant DENND10) [nM]
EFGDYHPLKP [VPS35L^28-37 peptide] | 6800 nM | 
EFASCRLEAVPLEFGDYHPLKPI [synthetic VPS35L peptide (residues Glu16-Ile38)] | 1800 nM and 1870 nM | 
CCDC22-CCDC93 CC1-CC2 complex (CCDC22(325-485) + CCDC93(310-488)), wild type (complex) chain 1: VTWAAQEQELESLREQLEGVNRSIEEVEADMKTLGVSFVQAESECRHSKLSTAEREQALRLKSRAVELLPDGTANLAKLQLVVENSAQRVIHLAGQWEKHRVPLLAEYRHLRKLQDCRELESSRRLAEIQELHQSVRAAAEEARRKEEVYKQLMSELETLP chain 2: GTSQLHRRKVISLNKQIAQKTKHLEELRASHTSLQARYNEAKKTLTELKTYSEKLDKEQAALEKIESKADPSILQNLRALVAMNENLKSQEQEFKAHCREEMTRLQQEIENLKAERAPRGDEKTLSSGEPPGTLTSAMTHDEDLDRRYNMEKEKLYKIRLLQARRNREIAILHRKIDEV |  | 28 ± 6
